Several values for one entry are separate records, joined by “and”; a condition that tells them apart may be missing. Identical values can stand only once.

The target of assay [1] is G3BP1^NTF2 (UniProt Q13283). Nature of the assay: ITC. Background: ITC needs no label: the signal is the heat of the interaction.
The target in assay [2] is T1, G3BP1^NTF2 (UniProt Q13283 11-133).
T1 construct: also called NTF2 domain of G3BP1
Nature of the assay: ITC. As to conditions: both partners purified.

Sequence of G3BP1^NTF2 (UniProt Q13283) (Q13283 11-133): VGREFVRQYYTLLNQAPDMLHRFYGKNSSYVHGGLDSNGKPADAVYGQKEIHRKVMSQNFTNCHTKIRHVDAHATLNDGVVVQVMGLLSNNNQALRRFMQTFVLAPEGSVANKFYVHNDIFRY
T1 sequence (Q13283 11-133): as above

Consider “SARS-CoV-2 N^11–24 I/A (from UniProt P0DTC9 11-24) (domain or fragment)”, for which, in the assay with G3BP1^NTF2 [1], the fold reduction of affinity against N^11–24 wild type is 6 fold and 7 fold.

In the case of “SARS-CoV-2 N^11–24 F/A (from UniProt P0DTC9 11-24) (domain or fragment)”, the fold reduction of affinity against N^11–24 wild type with G3BP1^NTF2 [1] is 7 fold and 6 fold.

B1: SARS-CoV-2 N^11–24 (domain or fragment)
chain: NAPRITFGGPSDST
notes: also called fragment from the N-IDR of N protein
In the assay with G3BP1^NTF2 [2], B1 had a Kd of approximately 10 µM.

For orientation: Kd means the free concentration of one partner at which half of the binding sites on the other are occupied at equilibrium, for simple one-to-one binding.

The values above are taken from paper PMC8368218 (Cell Discovery, 2021).
